Reference: patent US20080286752A1, “Methods for the production of HCV, assaying HCV entry, and screening drugs and cellular receptors for HCV” (priority 2005, published 2008)

Key:
[1] = target: T1, HCV E1 and E2 proteins (C22E1E2, genotype 1a) (Hepatitis C virus genotype 1a, UniProt P27958, H297R/K360A/N321D/N391S/R602W/V212I/Y589H); format: cell-based
T1 construct: residues 24-215 are E1, and residues 216-577 are E2; expressed in transfected cells; host or cells: 293T effector cells transfected with pcDNA3.1-HE1E2, co-cultured with Huh-7.5 target cells

HCV pseudoparticles = details: reports; cited from earlier work

| Sequence | effect on HCV E1E2 mediated fusion ([1]; peptide added to cells for an hour before fusion, concentrations up to 10 mM) | inhibition of transduction with pseudoparticles (HCV pseudoparticles) | inhibition of HCV E1E2 mediated fusion ([1]; peptide added to cells at concentrations of 10 nM or above for an hour before fusion) |
| --- | --- | --- | --- |
| SAYQVRNSSGLYHVTNDC | little effect | does not |  |
| SSGLYHVTNDCPNSSIVY |  | inhibits | ~40% |
